Experimental data from PMC7954794 (2021).

B1: S. cerevisiae Abp1 (full length; SH3 domain 535-592 mutated) / Hua2 (parent complex)
chain 1: MALEPIDYTTHSREIDAEYLKIVRGSDPDTTWLIISPNAKKEYEPESTGSSFHDFLQLFDETKVQYGLARVSPPGSDVEKIIIIGWCPDSAPLKTRASFAANFAAVANNLFKGYHVQVTARDEDDLDENELLMKISNAAGARYSIQTSSKQQGKASTPPVKKSFTPSKSPAPVSKKEPVKTPSPAPAAKISSRVNDNNDDDDWNEPELKERDFDQAPLKPNQSSYKPIGKIDLQKVIAEEKAKEDPRLVQKPTAAGSKIDPSSDIANLKNESKLKRDSEFNSFLGTTKPPSMTESSLKNDDDKVIKGFRNEKSPAQLWAERKAKQNSGNAETKAEAPKPEVPEDEPEGEPDVKDLKSKFEGLAASEKEEEEMENKFAPPPKKSEPTIISPKPFSKPQEPVKAEEAEQPKTDYKKIGNPLPGMHIEADNEEEPEENDDDWDDDEDEAAQPPLPSRNVASGAPVQKEEPEQEEIAPSLPSRNSIPAPKQEEAPEQAPEEEIEEEAEEAAPQLPSRSSAAPPPPPRRATPEKKPKENPWATAEYDYDAAEDNELTFVENDKIINIEFVDDDWWLGELEKDGSKGLFPSNYVSLGN
chain 2: MQQTKFGKMYLDHDSVVEYSEDEIVEADRITLGYKKRLSMIENQMRHLLEDFSLDVQQIEPILADLQKYYDAFLQLLQKRNKSLQCKRSTHQPVPSPMNSQTSTNAKVNLSGKLMKFQLNSVQKFDEENILRILQNKIEFEHYFQIDKGKKQKVLLLAVYQCLNGPTRLHKVLNIEGIIHNNSIRTILGKQVSSSKWTVFLYDVKLVLLAHRQDVPNLETSKMIVRYGDLFPCALYFKDHTAY

Variants of: B1
Assay: DHFR protein-fragment complementation in yeast (Abp1-DHFR F[1,2] x partner-DHFR F[3]), deep mutational scanning, second methotrexate selection vs reference; S. cerevisiae, DHFR-PCA selection in liquid with methotrexate at 30 C, two 72 h selections (the score uses the second); reference = the pre-selection culture
chain 1 MALEPIDYTTHSREIDAEYLKIVRGSDPDTTWLIISPNAKKEYEPESTGSSFHDFLQLFDETKVQYGLARVSPPGSDVEKIIIIGWCPDSAPLKTRASFAANFAAVANNLFKGYHVQVTARDEDDLDENELLMKISNAAGARYSIQTSSKQQGKASTPPVKKSFTPSKSPAPVSKKEPVKTPSPAPAAKISSRVNDNNDDDDWNEPELKERDFDQAPLKPNQSSYKPIGKIDLQKVIAEEKAKEDPRLVQKPTAAGSKIDPSSDIANLKNESKLKRDSEFNSFLGTTKPPSMTESSLKNDDDKVIKGFRNEKSPAQLWAERKAKQNSGNAETKAEAPKPEVPEDEPEGEPDVKDLKSKFEGLAASEKEEEEMENKFAPPPKKSEPTIISPKPFSKPQEPVKAEEAEQPKTDYKKIGNPLPGMHIEADNEEEPEENDDDWDDDEDEAAQPPLPSRNVASGAPVQKEEPEQEEIAPSLPSRNSIPAPKQEEAPEQAPEEEIEEEAEEAAPQLPSRSSAAPPPPPRRATPEKKPKENPWATAEYDYDAAEDNELTFVENDKIINIEFVDDDWWLGELEKDGSKGLFPSNYVSLGA [chain 1 N592A] was tested, and the screen value was 0.381 DMS score: mean over two replicates of log2(f_test/f_ref + 0.5)/ln 2, minus the synonymous-codon median (not a log2 ….
With chain 1 MALEPIDYTTHSREIDAEYLKIVRGSDPDTTWLIISPNAKKEYEPESTGSSFHDFLQLFDETKVQYGLARVSPPGSDVEKIIIIGWCPDSAPLKTRASFAANFAAVANNLFKGYHVQVTARDEDDLDENELLMKISNAAGARYSIQTSSKQQGKASTPPVKKSFTPSKSPAPVSKKEPVKTPSPAPAAKISSRVNDNNDDDDWNEPELKERDFDQAPLKPNQSSYKPIGKIDLQKVIAEEKAKEDPRLVQKPTAAGSKIDPSSDIANLKNESKLKRDSEFNSFLGTTKPPSMTESSLKNDDDKVIKGFRNEKSPAQLWAERKAKQNSGNAETKAEAPKPEVPEDEPEGEPDVKDLKSKFEGLAASEKEEEEMENKFAPPPKKSEPTIISPKPFSKPQEPVKAEEAEQPKTDYKKIGNPLPGMHIEADNEEEPEENDDDWDDDEDEAAQPPLPSRNVASGAPVQKEEPEQEEIAPSLPSRNSIPAPKQEEAPEQAPEEEIEEEAEEAAPQLPSRSSAAPPPPPRRATPEKKPKENPWATAEYDYDAAEDNELTFVENDKIINIEFVDDDWWLGELEKDGSKGLFPSNYVWLGN [chain 1 S589W] the screen value was 0.0382 DMS score: mean over two replicates of log2(f_test/f_ref + 0.5)/ln 2, minus the synonymous-codon median (not a log2 ….
With chain 1 MALEPIDYTTHSREIDAEYLKIVRGSDPDTTWLIISPNAKKEYEPESTGSSFHDFLQLFDETKVQYGLARVSPPGSDVEKIIIIGWCPDSAPLKTRASFAANFAAVANNLFKGYHVQVTARDEDDLDENELLMKISNAAGARYSIQTSSKQQGKASTPPVKKSFTPSKSPAPVSKKEPVKTPSPAPAAKISSRVNDNNDDDDWNEPELKERDFDQAPLKPNQSSYKPIGKIDLQKVIAEEKAKEDPRLVQKPTAAGSKIDPSSDIANLKNESKLKRDSEFNSFLGTTKPPSMTESSLKNDDDKVIKGFRNEKSPAQLWAERKAKQNSGNAETKAEAPKPEVPEDEPEGEPDVKDLKSKFEGLAASEKEEEEMENKFAPPPKKSEPTIISPKPFSKPQEPVKAEEAEQPKTDYKKIGNPLPGMHIEADNEEEPEENDDDWDDDEDEAAQPPLPSRNVASGAPVQKEEPEQEEIAPSLPSRNSIPAPKQEEAPEQAPEEEIEEEAEEAAPQLPSRSSAAPPPPPRRATPEKKPKENVWATAEYDYDAAEDNELTFVENDKIINIEFVDDDWWLGELEKDGSKGLFPSNYVSLGN [chain 1 P535V] the screen value was 1.51 DMS score: mean over two replicates of log2(f_test/f_ref + 0.5)/ln 2, minus the synonymous-codon median (not a log2 ….
With chain 1 MALEPIDYTTHSREIDAEYLKIVRGSDPDTTWLIISPNAKKEYEPESTGSSFHDFLQLFDETKVQYGLARVSPPGSDVEKIIIIGWCPDSAPLKTRASFAANFAAVANNLFKGYHVQVTARDEDDLDENELLMKISNAAGARYSIQTSSKQQGKASTPPVKKSFTPSKSPAPVSKKEPVKTPSPAPAAKISSRVNDNNDDDDWNEPELKERDFDQAPLKPNQSSYKPIGKIDLQKVIAEEKAKEDPRLVQKPTAAGSKIDPSSDIANLKNESKLKRDSEFNSFLGTTKPPSMTESSLKNDDDKVIKGFRNEKSPAQLWAERKAKQNSGNAETKAEAPKPEVPEDEPEGEPDVKDLKSKFEGLAASEKEEEEMENKFAPPPKKSEPTIISPKPFSKPQEPVKAEEAEQPKTDYKKIGNPLPGMHIEADNEEEPEENDDDWDDDEDEAAQPPLPSRNVASGAPVQKEEPEQEEIAPSLPSRNSIPAPKQEEAPEQAPEEEIEEEAEEAAPQLPSRSSAAPPPPPRRATPEKKPKENPWATAEYDYDAAEDNELTFVENDKIINIEFVDDDWWLGELEKDGSKGLFPSNYVSLQN [chain 1 G591Q] the screen value was 0.531 DMS score: mean over two replicates of log2(f_test/f_ref + 0.5)/ln 2, minus the synonymous-codon median (not a log2 ….
For chain 1 MALEPIDYTTHSREIDAEYLKIVRGSDPDTTWLIISPNAKKEYEPESTGSSFHDFLQLFDETKVQYGLARVSPPGSDVEKIIIIGWCPDSAPLKTRASFAANFAAVANNLFKGYHVQVTARDEDDLDENELLMKISNAAGARYSIQTSSKQQGKASTPPVKKSFTPSKSPAPVSKKEPVKTPSPAPAAKISSRVNDNNDDDDWNEPELKERDFDQAPLKPNQSSYKPIGKIDLQKVIAEEKAKEDPRLVQKPTAAGSKIDPSSDIANLKNESKLKRDSEFNSFLGTTKPPSMTESSLKNDDDKVIKGFRNEKSPAQLWAERKAKQNSGNAETKAEAPKPEVPEDEPEGEPDVKDLKSKFEGLAASEKEEEEMENKFAPPPKKSEPTIISPKPFSKPQEPVKAEEAEQPKTDYKKIGNPLPGMHIEADNEEEPEENDDDWDDDEDEAAQPPLPSRNVASGAPVQKEEPEQEEIAPSLPSRNSIPAPKQEEAPEQAPEEEIEEEAEEAAPQLPSRSSAAPPPPPRRATPEKKPKENPWATAEYDYDAAEDNELTFVENEKIINIEFVDDDWWLGELEKDGSKGLFPSNYVSLGN [chain 1 D557E], the screen value was -0.885 DMS score: mean over two replicates of log2(f_test/f_ref + 0.5)/ln 2, minus the synonymous-codon median (not a log2 ….
